Molecular target: soluble form of human TNFα (aa 77–233), wild-type (human)
Experiment: crystal structure; purified TNFα and certolizumab Fab mixed in a 1:1 molar ratio, complex isolated by size exclusion chromatography (20 mM Tris pH 8.0, 300 mM NaCl); hanging-drop crystals at 20 °C; 2.89 Å, three copies in the asymmetric unit

soluble form of human TNFα (aa 77–233), wild-type (ligand)
stoichiometry N: 3

Source: PMC5297857
